How the values were obtained:
[1] = biological target: recombinant cynomolgus PILRB (cynomolgus monkey); assay: SPR, Carterra LSA, antibody amine-coupled, kinetic fit
[2] = biological target: recombinant cynomolgus PILRB (cynomolgus monkey); assay: SPR, Biacore T200, antibody captured by anti-Fab

Kd [1] [nM] | Kd [2] [nM] | Binder
0.1 | – | X20 (antibody, human IgG4, V domains shown) VH: QVQLVQSGAEVKKPGSSVKVSCKASGYNFLHYDVNWVRQAPGQGLEWMGGIIPIFGTANYAQKFQGRVTITADESTSTAYMELSSLRSEDTAVYYCATAVGAGWFDPWGQGTLVTVSS VL: DIVMTQSPDSLAVSLGERATINCKSSQSVYFSENNKNYLAWYQQKPGQPPKLLIYWASTRESGVPDRFSGSGSGTDFTLTISSLQAEDVAVYYCQQYYEEPYTFGQGTRLEIK
0.5 | 0.4 | X11 (antibody, human IgG4, V domains shown) VH: QVQLVQSGAEVKKPGSSVKVSCKASGYNFLNYDVNWVRQAPGQGLEWMGGIIPIFGTANYAQKFQGRVTITADESTSTAYMELSSLRSEDTAVYYCATGVGAGWFDPWGQGTLVTVSS VL: DIVMTQSPDSLAVSLGERATINCKSSQSVYFSENNKNYLAWYQQKPGQPPKLLIYWASTRESGVPDRFSGSGSGTDFTLTISSLQAEDVAVYYCQQYYEEPYTFGQGTRLEIK
0.2 | – | X14 (antibody, human IgG4, V domains shown) VH: QVQLVQSGAEVKKPGSSVKVSCKASGYNFLHYDVNWVRQAPGQGLEWMGGIIPIFGTANYAQKFQGRVTITADESTSTAYMELSSLRSEDTAVYYCATAVGAGWFDTWGQGTLVTVSS VL: DIVMTQSPDSLAVSLGERATINCKSSQSVYFSPNNKNYLAWYQQKPGQPPKLLIYWASTRESGVPDRFSGSGSGTDFTLTISSLQAEDVAVYYCQQYFEEPYTFGQGTRLEIK
0.3 | – | X18 (antibody, human IgG4, V domains shown) VH: QVQLVQSGAEVKKPGSSVKVSCKASGYNFLHYDVNWVRQAPGQGLEWMGGIIPIFGTANYAQKFQGRVTITADESTSTAYMELSSLRSEDTAVYYCATAVGAGWFDTWGQGTLVTVSS VL: DIVMTQSPDSLAVSLGERATINCKSSQSVWFDPNNKNYLAWYQQKPGQPPKLLIYWASTRESGVPDRFSGSGSGTDFTLTISSLQAEDVAVYYCQQYFEEPYTFGQGTRLEIK
0.3 | – | X4 (antibody, human IgG4, V domains shown) VH: QVQLVQSGAEVKKPGSSVKVSCKASGYNFLNYDVNWVRQAPGQGLEWMGGIIPIFGTANYAQKFQGRVTITADESTSTAYMELSSLRSEDTAVYYCATGVGAGWFDPWGQGTLVTVSS VL: DIVMTQSPDSLAVSLGERATINCKSSQSVYFSPNNKNYLAWYQQKPGQPPKLLIYWASTRESGVPDRFSGSGSGTDFTLTISSLQAEDVAVYYCQQYFEEPYTFGQGTRLEIK
0.5 | – | X7 (antibody, human IgG4, V domains shown) VH: QVQLVQSGAEVKKPGSSVKVSCKASGYNFLNYDVNWVRQAPGQGLEWMGGIIPIFGTANYAQKFQGRVTITADESTSTAYMELSSLRSEDTAVYYCATGVGAGWFDPWGQGTLVTVSS VL: DIVMTQSPDSLAVSLGERATINCKSSQSVFFDENNKNYLAWYQQKPGQPPKLLIYWASTRESGVPDRFSGSGSGTDFTLTISSLQAEDVAVYYCQQYFEEPYTFGQGTRLEIK
0.3 | – | X17 (antibody, human IgG4, V domains shown) VH: QVQLVQSGAEVKKPGSSVKVSCKASGYNFLHYDVNWVRQAPGQGLEWMGGIIPIFGTANYAQKFQGRVTITADESTSTAYMELSSLRSEDTAVYYCATAVGAGWFDTWGQGTLVTVSS VL: DIVMTQSPDSLAVSLGERATINCKSSQSVFFDENNKNYLAWYQQKPGQPPKLLIYWASTRESGVPDRFSGSGSGTDFTLTISSLQAEDVAVYYCQQYFEEPYTFGQGTRLEIK

From patent US20260070976A1
